{"source": "patent US20060168698", "target": "T1, SOS1 (Salt Overly Sensitive 1, plasma membrane Na+/H+ antiporter), Q9LKW9", "T1 chain": "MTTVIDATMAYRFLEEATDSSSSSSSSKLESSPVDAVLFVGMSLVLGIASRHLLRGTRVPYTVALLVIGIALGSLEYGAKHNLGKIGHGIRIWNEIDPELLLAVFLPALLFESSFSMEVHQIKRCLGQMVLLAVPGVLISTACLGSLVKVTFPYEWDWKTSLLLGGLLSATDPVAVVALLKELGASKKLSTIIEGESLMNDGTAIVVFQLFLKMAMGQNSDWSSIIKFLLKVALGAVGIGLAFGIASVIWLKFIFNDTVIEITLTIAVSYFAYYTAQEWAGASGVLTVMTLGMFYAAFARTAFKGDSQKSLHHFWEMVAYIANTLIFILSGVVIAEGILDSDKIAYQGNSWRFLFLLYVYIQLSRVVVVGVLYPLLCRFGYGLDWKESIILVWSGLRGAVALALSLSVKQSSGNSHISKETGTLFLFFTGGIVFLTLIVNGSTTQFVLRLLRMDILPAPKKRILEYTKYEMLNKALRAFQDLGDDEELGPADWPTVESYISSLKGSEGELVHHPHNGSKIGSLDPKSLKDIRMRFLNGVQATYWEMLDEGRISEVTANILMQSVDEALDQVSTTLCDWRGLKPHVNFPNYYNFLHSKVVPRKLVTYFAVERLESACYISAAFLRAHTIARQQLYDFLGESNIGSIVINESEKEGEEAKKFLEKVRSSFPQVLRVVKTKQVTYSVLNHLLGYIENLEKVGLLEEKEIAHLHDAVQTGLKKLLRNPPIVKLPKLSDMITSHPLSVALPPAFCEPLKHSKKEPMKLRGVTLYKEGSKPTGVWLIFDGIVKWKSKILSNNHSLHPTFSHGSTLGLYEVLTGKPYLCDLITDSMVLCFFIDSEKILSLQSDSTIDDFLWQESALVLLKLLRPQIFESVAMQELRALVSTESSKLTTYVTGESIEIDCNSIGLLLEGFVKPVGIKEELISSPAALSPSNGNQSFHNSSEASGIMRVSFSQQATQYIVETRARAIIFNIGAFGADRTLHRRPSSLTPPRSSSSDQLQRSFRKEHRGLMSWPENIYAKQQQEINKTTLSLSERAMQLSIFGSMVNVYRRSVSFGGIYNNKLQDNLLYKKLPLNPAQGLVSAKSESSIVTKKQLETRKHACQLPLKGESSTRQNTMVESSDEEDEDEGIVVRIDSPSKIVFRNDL"}
{"protein": "T/DSOS2 (SOS2 protein kinase with the Thr168-to-Asp change in the activation loop) (protein) MTKKMRRVGKYEVGRTIGEGTFAKVKFARNTDTGDNVAIKIMAKSTILKNRMVDQIKREISIMKIVRHPNIVRLYEVLASPSKIYIVLEFVTGGELFDRIVHKGRLEESESRKYFQQLVDAVAHCHCKGVYHRDLKPENLLLDTNGNLKVSDFGLSALPQEGVELLRDTCGTPNYVAPEVLSGQGYDGSAADIWSCGVILFVILAGYLPFSETDLPGLYRKINAAEFSCPPWFSAEVKFLIHRILDPNPKTRIQIQGIKKDPWFRLNYVPIRAREEEEVNLDDIRAVFDGIEGSYVAENVERNDEGPLMMNAFEMITLSQGLNLSALFDRRQDFVKRQTRFVSRREPSEIIANIEAVANSMGFKSHTRNFKTRLEGLSSIKAGQLAVVIEIYEVAPSLFMVDVRKAAGETLEYHKFYKKLCSKLENIIWRATEGIPKSEILRTITF", "values": [{"measurement": "plasma membrane Na+/H+-exchange activity, maximum stimulation relative to activity without added protein (100 mM NaCl)", "result": "A maximum stimulation of activity of 40% relative to activity without added protein"}]}
